Laboratory results published in patent US7799901B2, “Modulators of the function of FAS receptors and other proteins” (Yeda Research and Development Co. Ltd., priority 1995, dated 2010).
“Also recorded” adds a separate entry of the source.

B1: MORT1 (92-208) (protein, UniProt Q13158 92-208, looked up, fragment)
chain: PGEEDLCAAFNVICDNVGKDWRRLARQLKVSDTKIDSIEDRYPRNLTERVRESLRIWKNTEKENATVAHLVGALRSCQMNLVADLVQEVQQARDLQNRSGAMSPMSWNSDASTSEAS
B2: MACHα3: MACH isoform, cDNA SEQ ID NO: 19, amino acid SEQ ID NO: 20; lacks an N-terminal part of the CED3/ICE region (protein)
chain: KCKLDDDMNLLDIFIEMEKRVILGEGKLDILKRVCAQINKSLLKIINDYEEFSKGALTTTFEELHFEIKPHDDCTVEQIYEILKIYQLMDHSNMDCFICCILSHGDKGIIYGTDGQEAPIYELTSQFTGLKCPSLAGKPKVFFIQACQGDNYQKGIPVETDSEEQPYLEMDLSSPQTRYIPDEADFLLGMATVNNCVSYRNPAEGTWYIQSLCQSLRERCPRGDDILTILTEVNYEVSNKDDKKNMGKQMPQPTFTLRKKLVFPSD

How the values were obtained:
[1] = test system: Fas/APO1 cytotoxicity (p55-Fas chimera) in 293-EBNA cells; assay type: cell-based, human; conditions: co-transfection
Protocol: (§1) In brief, 293-EBNA cells, MCF7 human breast carcinoma cells and HeLa HtTA-1 cells were grown in Dulbecco's modified Eagle's minimal essential medium supplemented with 10% fetal calf serum, nonessential amino acids, 100 U/ml penicillin and 100 μg/ml streptomycin. Cell tissue culture dishes (5×10^5 293-EBNA cells, 3×10^5 s MCF7 cells or 3×10^5 HeLa cells in 6-cm dishes) were transiently transfected, using the calcium phosphate precipitation method, with the cDNAs of the indicated proteins together with the β-galactosidase expression vector. In the experiments presented in FIGS. 14A-D and 15, each dish was transfected with 3.5 μg of the indicated MACH construct and 1.5 μg of pSV-β-gal. In the experiments presented in FIGS. 16A-D and 17-19, each dish was transfected with 2.5 μg of the indicated MACH or MORT1 construct (or, as control, empty vector) and 1.5 μg of pSV-β-gal. The cells were rinsed 6 to 10 h after transfection. The 293-EBNA and MCF7 cells were incubated for a further 18 h without additional treatment. […] The extent of cell death at the end of the incubation periods was assessed by determination of β-galactosidase expression, as described by Kumar et al, 1994. […]
(§2) In particular, FIGS. 16A-D show morphology of 293-EBNA cells in which cell death was induced by transient expression of a chimera comprised of the extracellular domain of the p55-R (amino acids 1-168) fused to the transmembrane and intracellular domains of Fas/APO1 (amino acids 153-319) (p55-Fas chimera) (FIGS. 16A and 16B), or by expression of the p55-R (FIGS. 16C and 16D), and of cells that were protected from these cytotoxic effects by their simultaneous transfection with MACHα1 (C360S) (FIGS. 16B and 16D). […] FIG. 17 illustrates the quantification of death induced in 293-EBNA cells by their transfection with p55-Fas chimera or with p55-R, together with an empty vector, a MORT1 deletion mutant lacking the MACH-binding region (MORT1 (92-208)), or MACHα molecules containing a nonfunctional CED3/ICE region. […] Data are from at least two independent experiments and are expressed as in FIGS. 14A-F and 15.

[2] = test system: p55-R-induced cytotoxicity in 293-EBNA cells; test: Death of 293-EBNA cells induced by over-expression of p55-R; assay type: cell-based, human; conditions: co-transfection
Protocol: as §1, §2

[3] = test system: Fas/APO1-induced death of HeLa cells; test: Death of HeLa cells expressing Fas/APO1 induced by anti-Fas/APO1 antibody and cycloheximide; assay type: cell-based, human; conditions: HeLa cells transiently expressing Fas/APO1, CH11 0.5 μg/ml, cycloheximide 10 μg/ml
Protocol: (§3) In brief, 293-EBNA cells, MCF7 human breast carcinoma cells and HeLa HtTA-1 cells were grown in Dulbecco's modified Eagle's minimal essential medium supplemented with 10% fetal calf serum, nonessential amino acids, 100 U/ml penicillin and 100 μg/ml streptomycin. Cell tissue culture dishes (5×10^5 293-EBNA cells, 3×10^5 s MCF7 cells or 3×10^5 HeLa cells in 6-cm dishes) were transiently transfected, using the calcium phosphate precipitation method, with the cDNAs of the indicated proteins together with the β-galactosidase expression vector. In the experiments presented in FIGS. 14A-D and 15, each dish was transfected with 3.5 μg of the indicated MACH construct and 1.5 μg of pSV-β-gal. In the experiments presented in FIGS. 16A-D and 17-19, each dish was transfected with 2.5 μg of the indicated MACH or MORT1 construct (or, as control, empty vector) and 1.5 μg of pSV-β-gal. The cells were rinsed 6 to 10 h after transfection. The 293-EBNA and MCF7 cells were incubated for a further 18 h without additional treatment. The HeLa cells were incubated for 26 h after transfection and-then for 5 h in the presence of either anti-Fas.APO1 antibody (CH11, 0.5 μg/ml) or TNF (100 ng/ml), together with cycloheximide (10 μg/ml). The extent of cell death at the end of the incubation periods was assessed by determination of β-galactosidase expression, as described by Kumar et al, 1994.
The HeLa cells were made responsive to Fas/APO1 by transient expression of this receptor. […] These protective effects indicate that MACHα is a necessary component of both the Fas/APO1- and the p55-R-induced signaling cascades for cell death.
In particular, FIGS. 16A-D show morphology of 293-EBNA cells in which cell death was induced by transient expression of a chimera comprised of the extracellular domain of the p55-R (amino acids 1-168) fused to the transmembrane and intracellular domains of Fas/APO1 (amino acids 153-319) (p55-Fas chimera) (FIGS. 16A and 16B), or by expression of the p55-R (FIGS. 16C and 16D), and of cells that were protected from these cytotoxic effects by their simultaneous transfection with MACHα1 (C360S) (FIGS. 16B and 16D). Photographs were taken 26 h after transfection. FIG. 17 illustrates the quantification of death induced in 293-EBNA cells by their transfection with p55-Fas chimera or with p55-R, together with an empty vector, a MORT1 deletion mutant lacking the MACH-binding region (MORT1 (92-208)), or MACHα molecules containing a nonfunctional CED3/ICE region. […] Data are from at least two independent experiments and are expressed as in FIGS. 14A-F and 15.

[4] = test system: TNF-induced death of HeLa cells; test: Death of HeLa cells induced by TNF and cycloheximide; assay type: cell-based, human; conditions: TNF 100 ng/ml, cycloheximide 10 μg/ml
Protocol: as §3, with “1994. […]” for “1994.”

[5] = test system: human embryonic kidney 293-EBNA cells; test: Cell death on overexpression of MACH isoforms in 293-EBNA cells; assay type: cell-based; conditions: β-galactosidase-expressing cells with apoptopic morphology, 20 h after transfection
Protocol: (§4) To explore the involvement of MACH in cell-death induction, the effect of overexpression of various MACH isoforms on cell viability was examined. The test was performed by transfecting MACH expression vectors together with a β-galactosidase expression vector as a transfection marker into human embryonic kidney 293-EBNA cells and breast carcinoma MCF7 cells.
as §3
(§5) In particular, FIGS. 14A-D show the morphology of human embryonic kidney 293-EBNA cells transiently expressing the indicated MACH isoforms. The arrows (FIG. 14B) point to apoptopic cells. Photographs were taken 26 h after transfection. […] Data are from three independent experiments with the 293-EBNA cells and two independent experiments with the MCF7 cells.

[6] = test system: breast carcinoma MCF7 cells; test: Cell death on overexpression of MACH isoforms in MCF7 cells; assay type: cell-based, human; conditions: β-galactosidase-expressing cells with apoptopic morphology, 20 h after transfection
Protocol: as §4, §3, §5

HeLa cells = test: Cell death on overexpression of MACH isoforms in HeLa cells; assay type: cell-based; conditions: FIG. 19
Protocol: as §3
To examine the involvement of the CED3/ICE homology region within the MACHα isoforms in their apoptopic effects, cells were transfected with the expression vector for the MACHβ1 isoform, which lacks the CED3/ICE homology region, as well as with expression vectors for MACHα3, which lacks an N-terminal part of the region, and with expression vectors for MACHα1 (C360S) and for a C-terminally truncated mutant of MACHα1 (MACHα1 (1-415)), which lacks one of the residues believed to be critical for CED3/ICE protease function (corresponding to Ser347 in ICE). […]

Molecule | protection against Fas/APO1 cytotoxicity (p55-Fas chimera) [1] | protection against p55-R-induced cytotoxicity [2] | protection against death induced by anti-Fas/APO1 antibody and cycloheximide [3] | protection against death induced by anti-Fas/APO1 antibody and cycloheximide ([3]; listed as MORT1DD (92-208)) | protection against death induced by TNF and cycloheximide [4] | cell death of transfected 293-EBNA cells [5] | cell death of transfected MCF7 cells [6] | cytotoxicity in transfected HeLa cells (HeLa cells)
B1 | protection was also observed | protection was also observed | protection was also observed | prevention | protection was also observed |  |  | 
B2 | effective protection | effective protection | effective protection; also recorded: prevention |  | effective protection | No death | No death | somewhat cytotoxic
